From IntAct's records for PubMed 22596162

B1: E3 ubiquitin-protein ligase RLIM (Mus musculus), Q9WTV7 (parent)
chain: MENSDSNDKGSDQSAAQRRSQMDRLDREEAFYQFVNNLSEEDYRLMRDNNLLGTPGESTEEELLRRLQQIKEGPPPQSPDENRAGESSDDVTNSDSIIDWLNSVRQTGNTTRSGQRGNQSWRAVSRTNPNSGDFRFSLEINVNRNNGSQTSENESEPSTRRLSVENMESSSQRQMENSASESASARPSRAERNSAEAVTEVPTTRAQRRARSRSPEHRRTRARAERSRSPLQPTSEIPRRAPTLEQSSENEPEGSSRTRHHVTLRQQISGPELLGRGLFAASGSRNPSQGTSSSDTGSNSESSGSGQRPPTIVLDLQVRRVRPGEYRQRDSIASRTRSRSQAPNNTVTYESERGGFRRTFSRSERAGVRTYVSTIRIPIRRILNTGLSETTSVAIQTMLRQIMTGFGELSYFMYSDSDSEPSASVSSRNVERVESRNGRGSSGGGNSSGSSSSSSPSPSSSGESSESSSEMFEGSSEGGSSGPSRRDGRHRAPVTFDESGSLPFLSLAQFFLLNEDDEDQPRGLTKEQIDNLAMRSFGENDALKTCSVCITEYTEGNKLRKLPCSHEYHVHCIDRWLSENSTCPICRRAVLSSGNRESVV

Variants of: B1
Conditions: with zfp42_mouse Zfp42, P22227
Chain of zfp42_mouse Zfp42, P22227 (P22227 whole entry): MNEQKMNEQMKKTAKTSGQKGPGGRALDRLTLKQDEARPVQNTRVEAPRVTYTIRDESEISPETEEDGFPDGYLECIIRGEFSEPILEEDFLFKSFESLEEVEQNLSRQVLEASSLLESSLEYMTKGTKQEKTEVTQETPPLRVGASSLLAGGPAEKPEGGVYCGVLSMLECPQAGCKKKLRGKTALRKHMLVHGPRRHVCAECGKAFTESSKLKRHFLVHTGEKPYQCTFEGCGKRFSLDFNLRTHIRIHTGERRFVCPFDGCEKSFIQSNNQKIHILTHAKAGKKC

effect of a mutation on the interaction | Variant
with no effect | H569A;C572A
